# Experimental data: the RNAGym collection of RNA variant scans (doi:10.1073/pnas.2313332121)
# B1: TPR t1 (parent)
# chain: GACCAAUCUGCCCUCAGAGCUCGAGAACAUCUUCGGAUGCAGAGGAGGCAGGCUUCGGUGGCGCGAUAGCGCCAACGUCCUCAACCUCCAAUGCAUCCCACCACAUGAUGAUGCCUGAAGAGCCUUGGUUUUUUG
# Variants of: B1
# Test: polymerase ribozyme fitness, log enrichment relative to wild type (log ratio); higher = more active; in vitro selection for triplet polymerase activity
# Method in brief: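 A heterodimeric triplet polymerase ribozyme had each of its subunits mutagenized by PCR into a library, which was transcribed. One round of in vitro selection, done in triplicate, annealed each library with a biotinylated primer, its partner subunit and triplets, then incubated it frozen at −7 °C before gel excision of extended constructs, streptavidin-bead capture and RT-PCR. Fitness is the logarithm of genotype enrichment relative to wild-type enrichment, based on Illumina sequencing of inputs and outputs and inverse-variance-weighted replicate averages. A base-2 logarithm is used, and genotypes were kept only with ≥10 input reads and ≥1 read per output.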
row,Variant,polymerase ribozyme fitness (log ratio)
1,A43G C64U C82G C114U A119G U131A,-1.99
2,G42C C72G,-1.76
3,G42C C72A,-1.16
4,G42C C82U,-1.49
5,G42C C88G,-3.51
6,A43G G120U,-1.47
7,G42C C94A,-2.23
8,A43G G58C G60A,-2.53
9,G42C C73G C79U A95G U129C,-3.37
10,G42A G71A,-3.35
11,G42C C56G C88G C114A,-5.36
12,G42U G63A C89U,-3.28
13,G42C C49U G63A G120A G128U,-5.69
14,A43C C94G,-4.54
15,A43C C94U,-2.66
16,A43G C53A,-2.39
17,G42A G127U,-2.7
18,A43C U87C,-1.86
19,A43C G61C U112A,-5.07
20,A43C C62U U87G C88G A90C G127C U132C,-3.94
21,G42C A43G A84C C114A,-2
22,G42U C49U G61A,-1.64
23,G42C G57C A66C,-4.36
24,G42U G57U C85A,-2.51

row,Variant,polymerase ribozyme fitness (log ratio)
1,G42A G60U C114G U129C,-3.48
2,G42C C101U,-1.45
3,A43C C62G G120A,-4.98
4,G42U G47U G120U,-1.57
5,G42A U87A C89U,-2.26
6,G42U C72U U125A,-1.92
7,A43C U112G,-2.77
8,G42U G63C C76A G77U A90U G117C G127U G128C,-3.83
9,G42C C53A C85U C114G C124U U133G,-3.5
10,A43C C56U,-2.57
11,A43G G60A C79U G93A,-2.95
12,G42U C79U A100U,-2.8
13,G42U G48A C104U,-0.902
14,G42C G127A,-2.97
15,A43C A74G C101A A111G,-3.37
16,A43G G71C U87G,-4.59
17,A43G G44U A46U U133A,-2.67
18,G42U U87G,-0.907
19,G42C C62G,-4.74
20,A43G A50U G71U,-5.61
21,G42U G69A,-5.35
22,G42C A50U C82A,-2.49
23,A43G C114U,-1.57
24,G42U C88A U92A G120A,-1.96

row,Variant,polymerase ribozyme fitness (log ratio)
1,A43C C56A U59A C72U,-3.55
2,A43C C49G A84G C115U G135U,-6.22
3,G42U G52U U96A C124G,-1.76
4,G42C U55C G60A C124G U132A,0.349
5,A43C U55C U130G,-2.82
6,A43G C82G C114U A119G U131A,-2.01
7,G42A G117U,-3.37
8,G42U U87C C123A U131C,-0.903
9,G42U G117A,-2.9
10,A43G C49U U59G C114U,-2.13
11,G42C C49U G128A,-5.33
12,A43G C86U A91U C101U U131A,-1.79
13,G42C C56U U81A C124G U132A,-0.851
14,G42U C72G C94U G120U U131A,-2.67
15,G42U G63A G93U,-3.94
16,A43G G69A,-6.04
17,A43G C124A,0.39
18,G42U A46U U96G,-2.26
19,G42A U55A C82G,-2.94
20,G42U C73A U106C,-1.97
21,A43G C49A,-2.37
22,G42C G57A C64A C85A G113U,-7.14
23,G42U G71A,-2.43
24,G42C G44U A74C C99A C123G,-6.31

row,Variant,polymerase ribozyme fitness (log ratio)
1,A43G C70A,-4.41
2,G42A U106C,-2.12
3,G42U G51C,-6.75
4,G42A G69A,-5.77
5,G42U A43U G63C U78C,-3
6,G42A U55C A95C U109A,-6.59
7,A43C G117U,-5
8,G42U G69C G120U,-3.45
9,G42C C115U G120U U129G,-4.74
10,G42C G52U,-2.21
11,A43G C73G U78A A111G,-3.33
12,G42C G48U C70A G120U,-5.45
13,A43G A50U,-3.81
14,A43C G71U C80U G110A G113U,-7.29
15,G42C G71U U96G,-3.01
16,G42C C64U,-0.982
17,G42U U54G C76U A111G,-2.36
18,G42U U106A,-1.56
19,G42C C114A,-2.26
20,G42C C56A G122A,-2.92
21,G42C G61A A121C U133G,0.579
22,G42U G93C U133A,-3.57
23,G42U A50G G57C G61U C80A C82A G120A,-4.58
24,G42C A66U G120A,-2.6

row,Variant,polymerase ribozyme fitness (log ratio)
1,A43G G107A,-6.28
2,G42C C56G C72A G77C A100U U132A,-3.99
3,G42C C49A G69U A90U U109G G128U,-6.14
4,A43G G48U C114U,-2.07
5,A43C G60A,-2.3
6,G42C C80U U92G,-3.41
7,A43G G60C C73A C88A,-3.87
8,A43C C49U G63U A66C,-5.38
9,A43C C70U C82A A91U G93U U96C C124G,-3.67
10,G42C C88U U106A A121C U125A,-1.81
11,G42C G45U G48U U131G,-3.09
12,A43G G44U A46U,-2.25
13,G42A U54G A103G U109A G117C,-6.58
14,G42C G44U G63U C123A G128C,-3.33
15,G42U G77U,-1.86
16,G42A U54A C72G C86U G110A C124G,-4.88
17,G42C G63A C88U,-3.63
18,G42U C56G C123U,-0.406
19,A43G C56U C79G A111G,-5.35
20,A43C U78A C82A,-3.68
21,A43G A46U G63U U87A U92G G120C U130C,-6
22,A43G G61A G65U,-5.48
23,G42C G61A,-0.466
24,A43C C76U C98U G117U,-7.18

row,Variant,polymerase ribozyme fitness (log ratio)
1,G42C A50C A105G,-5.66
2,A43C G44C,-1.05
3,G42C C56G C72G C88G C114A,-7.1
4,G42U A74G C85A,-1.78
5,G42U G52C C97G C115U,-6.37
6,A43G A103C A119G A121G G122U G135U,-4.67
7,G42C G60A G120U,-2.21
8,A43C C115U,-3.33
9,A43G C80U,-2.86
10,A43C C123A,-2.65
11,G42C C49A U92C G117A G122A,-4.11
12,A43C G69C,-4.47
13,G42U G45U C88G A90G,-1.09
14,G42U U59A G69U,-0.413
15,A43C U112A G113C,-1.28
16,G42U C53U,-1.85
17,G42U C53G,-1.45
18,G42C G120U,-1.69
19,G42A G110A,-2.55
20,G42A U78C,-1.87
21,G42U C72U G93U A118G,-4.06
22,G42U A84G,-3.57
23,G42U G58C U87C G120A C123G U125A,0.38
24,G42U G71A U92A,-3.78

row,Variant,polymerase ribozyme fitness (log ratio)
1,G42U G48U,-3.89
2,G42C C49U C79A C102G G120A,-7.51
3,A43C U112A G127C,-2.51
4,A43C G48U U54A G77U G120A G135A,-2.07
5,G42A G69C C124U,-2.56
6,G42C C53U G93A,-3.13
7,A43G C72A C102U C114G,-4.55
8,A43G G47C C64U C86G U125G G127C,-3.04
9,A43C G45C G63C G117U A118U G135A,-5.43
10,A43G C53A C89G C97G C123G,-5.57
11,G42U G135U,-1.66
12,A43C G47U G69U,-1.43
13,A43G G61U C94G A103U C114G,-5.99
14,G42C G69U C70G,-1.55
15,A43G G110A,-3.34
16,G42A G77A,-2.61
17,A43C U55C C64U A84G G110U U125A,-6.14
18,A43G A50U C62A A90G U131A,-5.99
19,A43C C70A C94U,-6.65
20,G42C G110C,-6.03
21,A43C G63C,-3.41
22,G42A G61C C114U G117C,-5.25
23,G42U G47U G60A U112A C114U G117C,-5.02
